Source: US10323078B2, “Isolated peptides and fragments thereof from fibrinogen for use as drugs, particularly in skin inflammatory diseases” (Universite Paris Descartes, priority 2015, dated 2019)

System: NHDK cells
Assay: H2O2 production by keratinocytes stimulated by lipoteichoic acid (LTA)
Assay type: cell-based, human
Settings: NHDK pre-treated 24 h with 1.75 to 7 μM, then LTA 10 μg/ml
Experimental: FIG. 18: Dose-dependent inhibition of H2O2 production by keratinocyte pre-treated by small Fg1-generated peptides and stimulated by lipoteichoic acid (LTA). NHDK cell were incubated for 24 h with recombinant peptide Fg1 (light gray bar) and Fg2 (dark gray bar) at concentrations ranging from 1.75 to 7 μM. Measurement of hydrogen peroxide production was realized by spectrofluorometry as described in Materials and Methods. Controls experiments were done with unstimulated NHDK cell (white bar) and HDF stimulated with LTA at 10 μg/ml (black bar). Data are means±S.D. of three separate experiments. Statistical significance is indicated by * (P<0.05), ** (P<0.01), *** (P<0.001), and **** (P<0.0001), respectively. […]
All cells lines (5·10^4 to 10^5 cells/well) were seeded in 96-well plates (Corning Costar, Brumath, France) and treated as previously described. After stimulation, cells were washed three times in PBS and incubated with 100 μl per wells of 5 μM DHE (for determination of O2^●−) or 5 μM H2-DCFDA (for determination of H2O2) for 30 min as described previously and fluorescence intensity was recorded every hour over a period of 5 h. Fluorescence excitation/emission maxima were for DHE: 480/610 nm and for H2-DCFDA: 507/525 nm. At the end of the experiment, the number of adherent cells was evaluated by the crystal violet assay as described below. […]

B1: MKRMVSWSFHKLKTMKHLLLLLLCVFLVKSQGVNDNEEGFFSARGHRPLDKKREEAPSLRPAPPPISGGGYRARPAKAAATQKKVERKAPDAGGCLHADPDLGVLC (protein)
chain: MKRMVSWSFHKLKTMKHLLLLLLCVFLVKSQGVNDNEEGFFSARGHRPLDKKREEAPSLRPAPPPISGGGRARPAKAAATQKKVERKAPDAGGCLHADPDLGVLCMKRMVSWSFHKLKTMKHLLLLLLCVFLVKSQGVNDNEEGFFSARGHRPLDKKREEAPSLRPAPPPISGGGYRARPAKAAATQKKVERKAPDAGGCLHADPDLGVLC
modifications: GST fusion; fragment Fg1
notes: fragment of Bß chain of human fibrinogen having 106 amino acids; recombinant GST-fused peptide expressed in E. coli
Decrease of H2O2 production by LTA-stimulated cells: significantly decreases production of H2O2
